± gives the uncertainty stated by the source.
Assay: amyloid nucleation score (Sup35N fusion, yeast selection) (log enrichment); library NNK3; higher = more nucleation; inactive = no reads after selection
In short: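 For the nucleation score, DiMSum gave the log enrichment of output over input reads, centred on the mode score of non-aggregating sequences. Psi-negative yeast expressing Sup35N fused to peptides of 20 random codons were induced with 100 μM copper sulfate for 24 hours and grown 7 days at 30°C on medium lacking adenine and uracil. Input and output plasmid inserts were Illumina-sequenced, and sequences with under 100 input reads were excluded.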

Substance | amyloid nucleation score
DDVTGKMKKIVCVDSHCQLP | inactive
DERLVYGEKSCRFSLSYANM | inactive
DFDAFRFIHVVSWFGFTIYP | inactive
DFDILGSDHISWWYGRFDKT | inactive
DFGSDSVDRIPRTGADNSI | inactive
DFMRVGVTRRALRVLSKSSD | inactive
DFNLNEVDTDMGFSLSESL | inactive
DFNSVVLPNGV | inactive
DFRLFFCLYGVYNLRYCFGW | inactive
DFYICPCCLSLKKRTMMSCG | inactive
DGACVSSRLSWGLVYMKKCS | inactive
DGCGCKWTGACAMLSCHMYL | 1.41 ± 0.091
DGDIVDSG | -0.616 ± 0.8
DGDYSWGFVIRCHGPRSWSR | inactive
DGFIWAQGLTLIFMRSNMKR | 2.42 ± 0.055
DGHMDR | inactive
DGHWVALREKSFSNQYRSET | inactive
DGRSFAVDAIVYCHLYR | 0.758 ± 0.11
DGVLNRSNDHPVQTPWPWFW | inactive
DGWFNQCASESSFKVHHGS | inactive
DIEMY | inactive
DIERGFGDSCKNGHFAVGSV | -0.629 ± 1.1
DIFVFILMLRTTDSWVLLS | inactive

Substance | amyloid nucleation score
DIFVNAV | inactive
DILEVIDIF | inactive
DIQTLPKLDLVFFVWAILEL | inactive
DISSILVNTWLFDWKLNP | inactive
DITRGCGVKDRKVVPASGLA | inactive
DIVCNFVT | inactive
DIVYQARCA | inactive
DKKVSISRVSR | inactive
DKMKQKAQKVEDLHMAIGDD | inactive
DKTCMVKPT | inactive
DLAYIGVFLIMFCFTSVDSM | -0.225 ± 0.58
DLCGNPVPVQSSGLGYDGLV | inactive
DLFKMRLGTERGY | inactive
DLGMLERC | inactive
DLGRNYIVNGIL | inactive
DLITSRSVLFVIVVL | inactive
DLSREQLGCVVGVQAECMKG | 0.37 ± 0.41
DLTSIVWSRAYVVSY | inactive
DLWHPMSY | -0.466 ± 0.84
DLWIYIVLYVVAHVALYKDG | inactive
DMKLPVCSKMPLFMLVIKFK | inactive
DMSSSGITGTEFRCNYYHEY | inactive
DNCEDEDKNRRNVRLYRGWV | inactive

Substance | amyloid nucleation score
DNIGSCHDSRAYVS | inactive
DNISHLAFCFNMALWYSNQS | 1.23 ± 0.14
DNLFSETSYVVRFARFL | inactive
DNLPTRRYLNKNDWRGASYL | inactive
DNVIYPASYGVVRRNTRHGF | inactive
DPLLLNRFGNCMLTLWVIVR | inactive
DPRRGIPIKPQMINTVQM | inactive
DPTVVGWEYMVSRFCLSRFT | inactive
DQAIVLVNFVSASSVPPKIF | 0.498 ± 0.25
DQMIEDRNWNGVNDYSYNAC | inactive
DRCCLLHYT | inactive
DRCGVFNTPYLVNSELILC | inactive
DRFEMPDVLWCRDYCNIARS | inactive
DRIDRDGRRIECQWGRGGVM | inactive
DRLHSCYCCTIVHRFYRNYD | inactive
DRLYGVSFVDF | inactive
DRNCRLIHYFIQ | inactive
DRNRCIVYTHGEISRLQ | inactive
DRQLDDGGTRNKFIKCLVAR | inactive
DRTTSVGPYSAVLGFMCDWW | inactive
DRVSANLTFLSS | inactive
DSFILLDTSTHTNTTAYGKC | inactive
DSQCLVWYIRFAYNERSHRK | inactive

Substance | amyloid nucleation score
DSQVSTTGVMEDRYLPILCF | inactive
DSRFEWLLTLYYRFYLHNGR | inactive
DSRKRKVRF | inactive
DSSKFLLTCHLWCG | inactive
DSSKV | inactive
DSSLKMGCKGWNVYVGATLV | 0.866 ± 0.16
DSSSDGSLTYDRGRSRSLFE | inactive
DSTDFRVLRGRRSRGEYVRG | inactive
DSVYGMHGKTTFT | inactive
DSYYFPRQGWMY | inactive
DTITRSTWIVCWRTE | inactive
DTMSKPSLLLGIPCVTHDVA | inactive
DTQQENCRTRGVRRGPRFCG | inactive
DTRFWTARLLYFFI | inactive
DTVMGSCDEFYLFASRHLCL | inactive
DTYRV | inactive
DVALTWPCYVDTTKCQMIMY | inactive
DVAWHRSACEYLFM | inactive
DVAYFNAFY | inactive
DVCEGEIYDPDSLKWFYQFL | inactive
DVCTLSELSVFPSLSISQ | inactive
DVEFI | inactive
DVFRVMDNLLFWKGTLALIQ | inactive

Substance | amyloid nucleation score
DVGSR | inactive
DVLGVSSASERAFGFENRAL | inactive
DVLRVPMNEVTNWSIPPY | inactive
DVMEVNLVPRAFNLCSSSGL | inactive
DVMKVMDRINKRGDNSNYVC | inactive
DVNLRTSHYAF | inactive
DVRIIAV | inactive
DWFSMVSRSGVDLKSVKRFG | inactive
DWLDLSGVSCH | -0.11 ± 0.62
DWTRFPSAFTGVQKSLVD | inactive
DWYMTVW | inactive
DYDGWESCFHFS | inactive
DYIYILSW | inactive
DYKRSMGFGWLTFVPYLAGN | inactive
DYLPFHLMERDKVALAPWWA | inactive
DYRVNCFTCLYVVEVSHSHD | 1.84 ± 0.061
DYVFPRVYRGS | inactive
DYVPIKFYRYYEILNVCRVV | inactive
EARLTSLCKKQYEF | inactive
EAVSCWSRKNMVRYGNGDRA | inactive
ECLRLDCGTSRLYYYHLITM | 0.814 ± 0.24
ECMRNTPLTQSTATTMTTGF | inactive
ECTSF | inactive

Substance | amyloid nucleation score
ECVCCRYYLVCGGPILRQDL | inactive
EDLVISNIFGWFGCLGLVYT | inactive
EDNRTTVVFTGEC | inactive
EDVSSNIRWRHTGKGETVVM | inactive
EDVYFSYGDVWMVIGALTTV | inactive
EEGCYHLLNNLGRNCSECNG | inactive
EFAGCKRRMRKGPIIVPADV | inactive
EFDDRACYDDTV | inactive
EFFCWIDSSIGSRYFSMTED | inactive
EFITSYMFSFVYVKNLWCKY | inactive
EFLQWFDFLQMMAPSLRSAN | inactive
EFQNFLVSFYEMYLQSPK | inactive
EFTNMYLPNSQQEVRFLQGL | inactive
EFVDSLLKRGGLFRVFGASS | inactive
EFVSDLDTDEVGLHCFCWCP | inactive
EGKARGDH | inactive
EGPGDEIFVSG | inactive
EGYACIVYCLGPINLLMWCT | inactive
EHNAKEHITLGLTSWPNRLG | inactive
EHPLMSSSVSSTNMFNYAQI | inactive
EHWCFINFLELICYQYLFLP | inactive
EIYCFRCVVIGIYYLVTIID | inactive
EKITFGECWKACSAF | inactive

Substance | amyloid nucleation score
EKKCIQRRFFYSVFNLMLSF | -0.714 ± 1
EKLVTCKDYFNRASTVTSLG | inactive
EKNNNRDGTDAVVIGNHKAG | inactive
EKYWNN | inactive
ELCVRQLCY | inactive
ELDGMTYASDHAFCISRNSS | inactive
ELLCLIYMDLHVCWQGLTMQ | inactive
ELLHKAF | inactive
ELLSCLKIWDIL | inactive
ELTEDLVDL | inactive
ELVGQF | inactive
ELVYDLDRYDGGLGVKNEEW | inactive
EMNLLFIVDAIELCPVLQAR | inactive
EMNSTFW | inactive
EMNVLCGTYKFQFGVASGVD | -0.385 ± 0.73
EMSFY | inactive
EMTGTYEVCFMT | inactive
ENAYLRSCRVVVKESSNVVV | -0.906 ± 1.4
ENIVCLAGKQHNHEMG | inactive
ENNRCYYKMF | inactive
ENSIVADTGPAV | inactive
